Reference: publication doi:10.1101/2023.09.08.556779, “Molecular model of a bacterial flagellar motor in situ reveals a “parts-list” of protein adaptations to increase torque” (bioRxiv, 2024)

Tests used:
[1] = target: PflB (C. jejuni 81–176 (endogenous in minicells)); experiment: cryo-EM structure; in situ single particle analysis of C. jejuni ΔflhG ΔflaAB minicells, C17 symmetry; focused refinement of the periplasmic scaffold and first basal disk ring to 7.9 Å; AlphaFold models docked or flexibly fitted
[2] = target: PflC, recombinant (C. jejuni); experiment: SEC + other: mass photometry; analytical SEC on ENrich SEC 650 in 1× PBS, calibrated with 15–600 kDa standards; mass photometry in PBS
[3] = target: the molecule itself; experiment: as above
[4] = target: the molecule itself; experiment: cryo-EM structure; in situ single particle analysis of C. jejuni ΔflhG ΔflaAB minicells, C17 symmetry; focused refinement of the periplasmic scaffold and first basal disk ring to 7.9 Å; AlphaFold models docked or flexibly fitted

## PflB (from UniProt A0A6F9L7Y3 1-820) (natural protein)
[1]
  stoichiometry N: 17

## PflC, recombinant (natural protein)
[2]
  stoichiometry N: 2

B1: PflCN (Δ236–349), recombinant (domain or fragment)
chain: GIERPKFEDFLAGYERNKASMLNYEGMPAFALSENLLAVLKQPNTKLNKYVKYDPFLNLYLVRTDFSLIPTPMGDEEKLTRNDWVGIWDPNKPYIGHIKYLAQNIDEKDQLDFNSKIGLLGTPCCEMMGIALNNSSFIGNRYLKHFMKYNDVYWGDIGVDFVVRENKIYVNNVRKNPQFLINDQVISVDGLPANDLRKLNEKILFADRGSTLYFQVLRDNSGGDGKFQFFIRLTK
[3]
  stoichiometry N: 2

B2: FliL (natural protein)
chain: MDEELENEETKKKKGGSLVIIIVILLFVLLLSIMGVIAWLISSSSSDESEVKEAPKEEAKADKPKVSAPTQRGSDFANIGPMYPLDPFTLNLLSDSGSRYVKCTIELEQNSELLKPELDKKVPVIRDIIIRTLTAKTFEEVSTQKGKERLKDELVGKINEILTDGFIKNVYFTDFVVS
notes: FliL of Campylobacter jejuni 81–176; an arc of four in each asymmetric unit of the proximal disk; source: endogenous, C. jejuni 81–176 (minicells imaged in situ; lysate of formaldehyde-crosslinked cells)
[4]
  stoichiometry N: 4
